# T1: his-tagged human TIGIT (Acro Biosystems #TIT-H52H3) (human, UniProt Q495A1 22-141)
# T1 construct: Bought protein; also called His-tagged-TIGIT (human); not shown: his tag
# T1 sequence (looked up): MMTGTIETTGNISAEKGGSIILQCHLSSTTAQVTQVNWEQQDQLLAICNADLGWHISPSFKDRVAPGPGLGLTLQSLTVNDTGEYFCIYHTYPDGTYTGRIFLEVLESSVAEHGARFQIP
# T2: his-tagged murine TIGIT (Acro Biosystems #TIT-M52E6) (murine, UniProt P86176 29-148, limits assumed)
# T2 construct: Bought protein; also called mouse his-tagged TIGIT; not shown: his tag
# T2 sequence (looked up): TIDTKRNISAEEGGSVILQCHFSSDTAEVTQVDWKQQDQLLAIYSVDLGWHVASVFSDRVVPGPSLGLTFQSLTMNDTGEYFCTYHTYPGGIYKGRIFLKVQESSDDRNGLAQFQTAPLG
# T3: human TIGIT on Jurkat cells (TIGIT/NFAT reporter Jurkat cells, BPS Bioscience #60538); Promega TIGIT Effector … (human, UniProt Q495A1 22-244)
# T3 sequence (looked up): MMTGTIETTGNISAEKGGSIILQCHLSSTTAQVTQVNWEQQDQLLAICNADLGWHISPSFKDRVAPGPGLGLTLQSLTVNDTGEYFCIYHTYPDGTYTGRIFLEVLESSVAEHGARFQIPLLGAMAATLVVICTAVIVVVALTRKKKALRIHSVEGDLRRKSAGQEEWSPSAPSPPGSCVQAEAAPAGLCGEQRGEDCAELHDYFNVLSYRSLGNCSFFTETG
# Assays:
# [1] = target: T1, his-tagged human TIGIT (Acro Biosystems …); experiment: ELISA, coated His-TIGIT, 1 ug/ml
# [2] = target: T4, His-tagged cynomolgus monkey TIGIT (Acro Biosystems #TIT-05223) (cynomolgus monkey, UniProt A0A7N9I9V4 89-209); experiment: ELISA, coated His-TIGIT, 1 ug/ml
# T4 construct: Bought protein; also called cyno TIGIT; cynomolgus TIGIT; not shown: His tag
# T4 sequence (A0A7N9I9V4 entry or part of it): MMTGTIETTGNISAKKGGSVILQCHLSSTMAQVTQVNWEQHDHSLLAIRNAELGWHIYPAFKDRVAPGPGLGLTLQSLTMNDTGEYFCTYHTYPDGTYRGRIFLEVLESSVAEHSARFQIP
# [3] = target: T2, his-tagged murine TIGIT (Acro …); experiment: ELISA, coated His-TIGIT, 1 ug/ml
# [4] = target: T4, His-tagged cynomolgus monkey TIGIT …; experiment: SPR (Carterra LSA), scFv-Fc captured, His-TIGIT analyte; repeat
# Procedure: (§1) Binding affinities of anti-TIGIT antibodies to human, cyno, and murine TIGIT were measured by Surface Plasmon Resonance (SPR) on a Carterra LSA instrument. Goat anti-human Fc antibody was amine coupled to a HC30M chip. ScFv-Fc supernatants were diluted 30-fold with HBSTE and were captured by the anti-human Fc coupled HC30M chip. A 1:2 dilution series of his-tagged human TIGIT, starting at 400 nM, was injected onto the chip for binding. A dilution series was also carried out for cyno TIGIT and murine TIGIT. Data were analyzed using the Carterra™ Kinetics software.
# [5] = target: T2, his-tagged murine TIGIT (Acro …); experiment: as above
# Procedure: as §1
# [6] = target: T1, his-tagged human TIGIT (Acro Biosystems …); experiment: SPR (Carterra LSA), scFv-Fc captured, His-TIGIT analyte
# In short: (§2)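 Affinity from His-TIGIT analyte injected in 1:2 serial dilution over antibody captured as scFv-Fc via amine-coupled goat anti-human Fc on an HC30M surface. Supernatants diluted 30-fold in HBSTE; kinetic fitting.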
# [7] = target: T4, His-tagged cynomolgus monkey TIGIT …; experiment: as above
# In short: as §2
# [8] = target: T2, his-tagged murine TIGIT (Acro …); experiment: as above
# In short: as §2
# [9] = target: T3, human TIGIT on Jurkat cells (TIGIT/NFAT …); experiment: cell-based or functional assay
# [10] = target: T3, human TIGIT on Jurkat cells (TIGIT/NFAT …); experiment: flow cytometry, TIGIT/NFAT Jurkat cells, 10 ug/ml
binder,measurement,setting,value
"43352p1.H8 (scFv, V domains shown) VH: DVQLVESGGGVVRPGESLRLSCAASGFNFSTYAMNWVRQAPGEGLEWVSGISGRSSGDTTYYADSVRGWFTVSRDNSKNTLYLQMSSLRAEDTAVYYCARETWIRGYFDYWGLGTLVTVSS VL: QSVLTQPPSASGTPGQRVTISCSGSRSNLGNNLVYWYQQLPGTAPKLLIYFNNERPSGVPDRFSGSKSGTSASLAISGVQSEDEADYYCATWDDSLNGWVFGGGTKLTVL",Elisa OD450,[1],1.8 OD450
same,Elisa OD450,[2],0.363 OD450
same,Elisa OD450,[3],1.85 OD450
same,Kd,[4],114 nM
same,Kd,[5],0.74 nM
same,Kd,[6],0.194 nM
same,Kd,[7],120 nM
same,Kd,[8],1.14 nM
same,max. signal (% of 22G2),[9],96 % of 22G2
same,MFI,[10],10300 MFI
"43586p1.2.B2 (scFv, V domains shown) VH: EMQLLESGGGLVQPGGSLRLSCAASGFTFDDYVMSWVRQAPGKGLEWVSLINWNGDKTYYADSVKGRFTISRDNSKNTLYLQMNSLRAEDTAIYYCAKHWIVFQYGMDVWGQGTTVTVSS VL: QSVLTQPPSASGTPGQRVTISCSGSISNIETKYVSWYQQLPGTAPKLLIYNSDQRPSGVPDRFSGSKSGTSASLAISGLQSEDEADYYCVSWDASLKSWVFGGGTKLTVL",Elisa OD450,[1],2.06 OD450
same,Elisa OD450,[2],1.57 OD450
same,Elisa OD450,[3],2.01 OD450
same,Kd,[4],1.8 nM
same,Kd,[5],1.3 nM
same,Kd,[6],0.245 nM
same,Kd,[7],14.3 nM
same,Kd,[8],3.28 nM
same,max. signal (% of 22G2),[9],121 % of 22G2
same,MFI,[10],9270 MFI
"43586p1.2.E4 (scFv, V domains shown) VH: EVQLLESGGGLVQPGGSLRLSCAASGFTFSDYLMTWVRQAPGKGLEWVSTITWDGDRTYYADSVKGRFTISRDNSKNTLYLQMNSLRAEDTAVYYCAKHWTVFQYGMDVWGQGTTVTVSS VL: QSVLTQPPSASGTPGQRVTISCSGTISNIEIKYVSWYQQLPGTAPKLLIYGNHQRPSGVPDRFSGSKSGTSASLAISGLQSEDEADYYCSSWENDLKSWVFGGGTKLTVL",Elisa OD450,[1],2.09 OD450
same,Elisa OD450,[2],1.86 OD450
same,Elisa OD450,[3],2.03 OD450
same,Kd,[4],2.8 nM
same,Kd,[5],18 nM
same,Kd,[6],0.117 nM
same,Kd,[7],25.4 nM
same,Kd,[8],66.5 nM
same,max. signal (% of 22G2),[9],113 % of 22G2
same,MFI,[10],9550 MFI
"43586p2.D11 (scFv, V domains shown) VH: EVQLLESGGGLVQPGGSLRLSCAASGFTFDDYVMSWVRQAPGKGLEWVSLINWSGGTTYYADSVKGRFTISRDNSKNTLYLQMNSLRAEDTAVYYCAKHWIVYQYGMDVWGQGTTVTVSS VL: QSVLTQPSSASGTPGQRVAISCSGTISNIETKYVSWYKYVSWYQQLPGTAPKLLIYNNVQRPSGVPDRFSGSQSGTSASLAISGLQSEDEAHYYCASWEGGLNSWVFGGGTKLTVL",Elisa OD450,[1],2.01 OD450
same,Elisa OD450,[2],1.6 OD450
same,Elisa OD450,[3],1.61 OD450
same,Kd,[4],4.4 nM
same,Kd,[5],0.744 nM
same,Kd,[6],0.558 nM
same,Kd,[7],87.4 nM
same,Kd,[8],41.4 nM
same,max. signal (% of 22G2),[9],102 % of 22G2
same,MFI,[10],9530 MFI
"43586p1.2.E1 (scFv, V domains shown) VH: EVQLLESGGGLVQPGGSLRLSCAASGFTFSDYLMTWVRQAPGKELEWVSTITWDGDRTYYADSVKGRFTISRDNSKNTLYLQMNSLRAEDTAVYYCAKHWTVFQYGMDVWGQGTTVTVSS VL: QSVLTQPPSASGTPGQRVTISCSGTISNIEIKYVSWYQQLPGTAPKLLIYGNHQRPSGVPDRFSGSKSGTSASLAISGLQSEDEADYYCSSWENDLKSWVFGGGTKLTVL",Elisa OD450,[1],2.25 OD450
same,Elisa OD450,[2],1.85 OD450
same,Elisa OD450,[3],2.11 OD450
same,Kd,[4],3.2 nM
same,Kd,[5],22 nM
same,Kd,[6],0.029 nM
same,Kd,[7],6.27 nM
same,Kd,[8],7.34 nM
same,max. signal (% of 22G2),[9],111 % of 22G2
same,MFI,[10],9480 MFI
"43586p1.2.G10 (scFv, V domains shown) VH: EVQLLESGGGLVQPGGSLRLSCAASGFTFDDYVMSWVRQAPGKELEWVSLINWNGDKTCYADSVKGRFTISRDNSKNTLYLQMNSLRAEDTAIYYCAKHWIVFQYGMDVWGQGTTVTVSS VL: QSVLTQPPSASGTPGQRVTISCSGSISNIETKYVSWYQQLPGTAPKLLIYNSDQRPSGVPDRFSGSKSGTSASLAISGLQSEDEADYYCVSWDASLKSWVFGGGTKLTVL",Elisa OD450,[1],1.99 OD450
same,Elisa OD450,[2],1.52 OD450
same,Elisa OD450,[3],2.1 OD450
same,Kd,[4],6.3 nM
same,Kd,[5],10 nM
same,Kd,[6],0.941 nM
same,Kd,[7],14 nM
same,Kd,[8],15.6 nM
same,max. signal (% of 22G2),[9],96 % of 22G2
same,MFI,[10],10100 MFI
"43586p1.2.C11 (scFv, V domains shown) VH: EVQLLESGGGLVQPGGSLRLSCAASGFTFDDYVMSWVRQAPGKGLEWVSLINWNGDKTYCADSVKGRFTISRDNSKNTLYLQMNSLRAEDTAIYYCAKHWIVFQYGMDVWGQGTTVTVSS VL: QSVLTQPPSASGTPGQRVTISCSGSISNIETKYVSWYQQLPGTAPKLLIYNSDQRPSGVPDRFSGSKSGTSASLAISGLQSEDEADYYCVSWDASLKSWVFGGGTKLTVL",Elisa OD450,[1],2.03 OD450
same,Elisa OD450,[2],1.81 OD450
same,Elisa OD450,[3],2.01 OD450
same,Kd,[4],1.9 nM
same,Kd,[5],1.8 nM
same,Kd,[6],0.0517 nM
same,Kd,[7],2.56 nM
same,Kd,[8],1.45 nM
same,max. signal (% of 22G2),[9],106 % of 22G2
same,MFI,[10],9550 MFI
"43586p1.2.G4 (scFv, V domains shown) VH: EVQLLESGGGLVQPGGSLRLSCAASGFTFDDYVMSWVRQAPGKGLEWVSLINWNGDKTYYADSVKGRFTISRDNSKNTLYLQMNSLRAEDTAVYYCARHWIVFQYGLDVWGQGTTVTVSS VL: QSVLTQPLSASGTPGQRVTISCSGVSSNIEIKYVSWYQQLPGTAPKLLIYNSHQRPSGVPDRFSGSKSGTSASLAISGLQSEDEADYYCTSWDDRLKSWVFGGGTKLTVL",Elisa OD450,[1],2.02 OD450
same,Elisa OD450,[2],1.88 OD450
same,Elisa OD450,[3],2.04 OD450
same,Kd,[4],0.582 nM
same,Kd,[5],4.8 nM
same,Kd,[6],0.394 nM
same,Kd,[7],3.19 nM
same,Kd,[8],6.89 nM
same,max. signal (% of 22G2),[9],101 % of 22G2
same,MFI,[10],9340 MFI
"43586p1.2.F9 (scFv, V domains shown) VH: EVQLLESGGGLVQPGGSLRLSCAASGFTFDDYVMSWVRQAPGKGLEWVSLINWNGDKTYYADSVKGRFTISRDNSKNTLYLQMNSLRAEDTAIYYCAKHWIVFQYGMDVWGRGTTVTVSS VL: QSVLTQPPSASGTPGQRVTISCSGSISNIETKYVSWYQQLPGTAPKLLIYNSDQRPSGVPDRFSGSKSGTSASLAISGLQSEDEADYYCVSWDASLKSWVFGGGTKLTVL",Elisa OD450,[1],2 OD450
same,Elisa OD450,[2],1.71 OD450
same,Elisa OD450,[3],2.14 OD450
same,Kd,[4],2 nM
same,Kd,[5],2.1 nM
same,Kd,[6],0.338 nM
same,Kd,[7],12.2 nM
same,Kd,[8],4.95 nM
same,max. signal (% of 22G2),[9],127 % of 22G2
same,MFI,[10],9110 MFI
"43586p1.2.E2 (scFv, V domains shown) VH: EVQLLESGGGLVQPGGSLRLSCAASGFTFTSYLMSWVRQAPGKGLEWVSTITWDGDRTYYADSVKGRFTISRDNSKNTLYLQMNSLRVGDTAVYYCAKHWTVFQYGMDVWGQGTTVTVSS VL: QSVLTQPASASGTPGQRVTISCSGTISNIETKYVSWYQQLPGTAPKLLIYGNHQRPSGVPDRFSGSKSGTSASLAISGLQSEDEADYYCASWENDLKSWVFGGGTKLTVL",Elisa OD450,[1],2.02 OD450
same,Elisa OD450,[2],1.73 OD450
same,Elisa OD450,[3],1.78 OD450
same,Kd,[4],4.8 nM
same,Kd,[5],67 nM
same,Kd,[6],0.0486 nM
same,Kd,[7],9.5 nM
same,Kd,[8],122 nM
same,max. signal (% of 22G2),[9],125 % of 22G2
same,MFI,[10],9320 MFI

# — patent US20230265187A1 (published 2023)
